According to paper PMC101403:

How the values were obtained:
Assay in all cases: purified protein
Details in all cases: Mg2+ ([…] MgCl2)
purified protein [1] = substrate: CC(C)(COP(=O)(O)OP(=O)(O)OC[C@H]1O[C@@H](n2cnc3c(N)ncnc32)[C@H](O)[C@@H]1OP(=O)(O)O)[C@@H](O)C(=O)NCCC(=O)NCCS
purified protein [2] = substrate: CC(O)(CC(=O)O)CC(=O)SCCNC(=O)CCNC(=O)[C@H](O)C(C)(C)COP(=O)(O)OP(=O)(O)OC[C@H]1O[C@@H](n2cnc3c(N)ncnc32)[C@H](O)[C@@H]1OP(=O)(O)O
purified protein [3] = substrate: CC(C)(COP(=O)(O)OP(=O)(O)OC[C@H]1O[C@@H](n2cnc3c(N)ncnc32)[C@H](O)[C@@H]1OP(=O)(O)O)[C@@H](O)C(=O)NCCC(=O)NCCSC(=O)CCC(=O)O
purified protein [4] = substrate: CC(=O)SCCNC(=O)CCNC(=O)[C@H](O)C(C)(C)COP(=O)(O)OP(=O)(O)OC[C@H]1O[C@@H](n2cnc3c(N)ncnc32)[C@H](O)[C@@H]1OP(=O)(O)O

B1: Y87G2A.14 Nudix hydrolase (coenzyme A diphosphatase) (Caenorhabditis elegans) (protein)
chain: MKCVVSRADDLKRMLDLSDVPTKSQGEQDAGVLILLHDDGSEKLKVLLCVRSRQLRRHPGEVCFPGGMMDDEDGQNVRRTAIREAYEEVGVNENDDYLVLGNLPAFRARFGVLIHPTVALLRRPPTFVLSIGEVESIFWIPLSQFLEDTHHSTFLIDEFYMVHVFQFDEYPTTYGVTALMCIVVAIGLLGKLPNFNLMGNLTISDMLDKHLDSIEIIRHVYEFASRKFEPKSKI
Question: How did the Km (purified protein [1]) turn out when B1 was run?
Answer: 220 µM

Question: And the kcat (purified protein [1])?
Answer: 13.8 s⁻¹

Question: What about the kcat/Km (purified protein [1]) of the same protein?
Answer: 64000 M⁻¹ s⁻¹

Question: And the Km (purified protein [2])?
Answer: 200 µM

Question: And the kcat (purified protein [2])?
Answer: 10.5 s⁻¹

Question: And the kcat/Km (purified protein [2])?
Answer: 54000 M⁻¹ s⁻¹

Question: And the Km (purified protein [3])?
Answer: 240 µM

Question: What about the kcat (purified protein [3]) of the same protein?
Answer: 12.7 s⁻¹

Question: And the kcat/Km (purified protein [3])?
Answer: 53000 M⁻¹ s⁻¹

Question: What about the Km (purified protein [4]) of the same protein?
Answer: 230 µM

Question: What about the kcat (purified protein [4]) of the same protein?
Answer: 11.8 s⁻¹

Question: And the kcat/Km (purified protein [4])?
Answer: 51000 M⁻¹ s⁻¹
